These results are taken from article PMC2795164, “VEZF1 Elements Mediate Protection from DNA Methylation”.

For series [1], the target named is T1, VEZF1 (BGP1) (Gallus gallus (chicken), UniProt I6LDD9 1-555).
T1 sequence: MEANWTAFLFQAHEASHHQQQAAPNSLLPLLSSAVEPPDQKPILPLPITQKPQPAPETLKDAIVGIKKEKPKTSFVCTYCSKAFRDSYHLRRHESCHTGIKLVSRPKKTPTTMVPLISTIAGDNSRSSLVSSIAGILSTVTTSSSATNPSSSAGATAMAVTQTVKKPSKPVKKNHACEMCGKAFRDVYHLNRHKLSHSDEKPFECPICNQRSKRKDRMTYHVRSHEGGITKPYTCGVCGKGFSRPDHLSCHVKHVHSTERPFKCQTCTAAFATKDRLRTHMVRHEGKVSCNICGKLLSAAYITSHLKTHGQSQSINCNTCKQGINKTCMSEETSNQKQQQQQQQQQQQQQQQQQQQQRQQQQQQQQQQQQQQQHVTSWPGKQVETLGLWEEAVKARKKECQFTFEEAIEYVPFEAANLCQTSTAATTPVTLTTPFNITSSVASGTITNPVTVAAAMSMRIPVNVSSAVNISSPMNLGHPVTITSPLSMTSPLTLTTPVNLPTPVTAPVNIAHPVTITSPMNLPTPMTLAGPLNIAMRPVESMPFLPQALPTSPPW
Briefly: EMSA; EMSA buffer, salt, pH and temperature not given in the material; competitors at 50-fold molar excess. The settings on record: protein: ivt; label: 32P (probe); blunt.

The target in another series is SP1, recombinant (Gallus gallus (chicken), UniProt A0A8V1A4P9 1-760). The description is as above. The settings on record: protein: recombinant; label: 32P (probe); blunt.
SP1, recombinant, sequence (A0A8V1A4P9 entry or part of it): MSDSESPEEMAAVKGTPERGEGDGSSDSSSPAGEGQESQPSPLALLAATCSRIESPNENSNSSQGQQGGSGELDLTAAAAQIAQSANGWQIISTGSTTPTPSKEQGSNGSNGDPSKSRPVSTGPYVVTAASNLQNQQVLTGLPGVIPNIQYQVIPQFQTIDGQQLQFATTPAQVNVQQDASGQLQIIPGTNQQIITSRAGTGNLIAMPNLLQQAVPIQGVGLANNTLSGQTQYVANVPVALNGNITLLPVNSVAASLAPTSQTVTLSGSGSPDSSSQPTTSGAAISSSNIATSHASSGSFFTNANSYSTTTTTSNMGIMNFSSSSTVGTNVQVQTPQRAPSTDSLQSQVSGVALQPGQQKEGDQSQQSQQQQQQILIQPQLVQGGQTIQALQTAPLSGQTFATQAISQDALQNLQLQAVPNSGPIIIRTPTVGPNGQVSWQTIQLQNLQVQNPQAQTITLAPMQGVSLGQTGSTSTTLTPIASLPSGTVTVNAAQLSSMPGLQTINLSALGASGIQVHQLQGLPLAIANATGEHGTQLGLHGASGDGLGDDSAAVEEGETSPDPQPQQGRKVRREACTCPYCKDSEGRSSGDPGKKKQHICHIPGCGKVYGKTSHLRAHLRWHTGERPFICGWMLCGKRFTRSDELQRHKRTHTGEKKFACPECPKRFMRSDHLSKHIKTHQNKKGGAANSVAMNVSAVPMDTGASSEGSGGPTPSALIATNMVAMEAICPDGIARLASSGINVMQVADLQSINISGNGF
For a further series, the target named is SP3, recombinant (Gallus gallus (chicken), UniProt Q90WR8 1-771). Described as above. The settings on record: protein: recombinant; label: 32P (probe); blunt.
SP3, recombinant, sequence (Q90WR8 whole entry): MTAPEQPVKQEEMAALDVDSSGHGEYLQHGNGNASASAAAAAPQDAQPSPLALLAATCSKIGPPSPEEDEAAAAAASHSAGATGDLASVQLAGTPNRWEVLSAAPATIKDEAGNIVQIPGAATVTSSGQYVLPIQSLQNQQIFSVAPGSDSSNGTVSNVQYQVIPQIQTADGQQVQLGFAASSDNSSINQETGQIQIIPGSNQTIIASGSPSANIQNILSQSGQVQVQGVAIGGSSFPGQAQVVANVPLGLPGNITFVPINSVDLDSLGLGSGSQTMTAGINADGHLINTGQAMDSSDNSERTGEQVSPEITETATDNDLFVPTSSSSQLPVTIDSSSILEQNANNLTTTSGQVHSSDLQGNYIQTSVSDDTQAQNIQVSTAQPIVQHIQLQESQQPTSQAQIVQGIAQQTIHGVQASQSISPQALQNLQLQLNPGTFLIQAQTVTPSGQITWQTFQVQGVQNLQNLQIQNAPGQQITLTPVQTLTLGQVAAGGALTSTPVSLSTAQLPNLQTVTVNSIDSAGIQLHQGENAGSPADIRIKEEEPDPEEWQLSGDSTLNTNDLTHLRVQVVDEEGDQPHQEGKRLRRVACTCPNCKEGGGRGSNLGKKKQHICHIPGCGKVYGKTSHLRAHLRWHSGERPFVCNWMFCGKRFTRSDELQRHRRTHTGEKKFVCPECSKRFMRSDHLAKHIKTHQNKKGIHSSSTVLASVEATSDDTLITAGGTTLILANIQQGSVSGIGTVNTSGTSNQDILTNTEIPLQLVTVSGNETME
Series [2] deals with T2, ZF5, recombinant (Gallus gallus (chicken), UniProt Q92010 1-448, R436A).
T2 sequence: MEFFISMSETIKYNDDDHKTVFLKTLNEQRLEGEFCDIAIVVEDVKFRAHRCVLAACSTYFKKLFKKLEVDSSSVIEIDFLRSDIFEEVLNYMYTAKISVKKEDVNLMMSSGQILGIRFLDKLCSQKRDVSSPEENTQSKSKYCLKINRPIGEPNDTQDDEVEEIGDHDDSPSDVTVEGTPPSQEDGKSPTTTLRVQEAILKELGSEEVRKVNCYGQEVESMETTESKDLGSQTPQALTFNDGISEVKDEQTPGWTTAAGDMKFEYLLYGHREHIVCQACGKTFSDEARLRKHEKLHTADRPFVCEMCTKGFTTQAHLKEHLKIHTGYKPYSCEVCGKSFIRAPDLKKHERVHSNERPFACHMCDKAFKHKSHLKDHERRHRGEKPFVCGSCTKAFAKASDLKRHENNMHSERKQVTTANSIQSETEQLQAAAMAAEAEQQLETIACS
Described as above. The settings on record: protein: recombinant; label: 32P (probe); blunt.

For series [3], the target named is T2, ZF5, recombinant. The series is described as follows: EMSA; no specificity for the dG-dC string; EMSA buffer, salt, pH and temperature not given in the material; competitors at 50-fold molar excess. The settings on record: protein: recombinant; label: 32P (probe); blunt. (Mobility shift assays separate free from complexed probe on a gel.)
The target of series [4] is T1, VEZF1 (BGP1). Briefly: EMSA; EMSA buffer, salt, pH and temperature not given in the material; competitors at 50-fold molar excess. The settings on record: protein: ivt; label: 32P (probe); blunt. This is another data set of the same source.

B1: glo wt (betaA-globin promoter, G16) (dsDNA)
DNA 1: AATTGCAGAGCTGGGAATCGGGGGGGGGGGGGGGGCGGGTGGTGGTGTGG
DNA 2: CCACACCACCACCCGCCCCCCCCCCCCCCCCGATTCCCAGCTCTGCAATT
B1: the binding result with VEZF1 (BGP1) [1] is “binds”; with SP1, recombinant, “binds”; in the series with SP3, recombinant, “binds”.

B2: HS4 FI wt (dsDNA)
DNA 1: GGAGCTCACGGGGACAGCCCCCCCCCAAAGCCCCCAGGGA
DNA 2: TCCCTGGGGGCTTTGGGGGGGGGCTGTCCCCGTGAGCTCC
With B2, the binding result with ZF5, recombinant [2] is reported as “no binding”; with VEZF1 (BGP1) [1], “binds”; in the series with SP1, recombinant, “binds”; in the series with SP3, recombinant, “binds”.

B3: HS4 FIII wt (dsDNA)
DNA 1: AGGCGCGCCCCGGTCCGGCGCTCCCCCCGCATCCCCGAGCCGGGGCGCGCCT
DNA 2: AGGCGCGCCCCGGCTCGGGGATGCGGGGGGAGCGCCGGACCGGGGCGCGCCT
Turning to B3, the binding result with SP1, recombinant is reported as “no binding”; with SP3, recombinant it was “no binding”; with ZF5, recombinant [3] it was “binds”. In addition, in the series with VEZF1 (BGP1) [4], the binding signal is ~2 fold lower affinity than FI and betaA sites.

B4: HS4 FV wt (dsDNA)
DNA 1: CCTGCAGACACCTGGGGGGATACGGGGAAAAAGCTTTAGG
DNA 2: CCTAAAGCTTTTTCCCCGTATCCCCCCAGGTGTCTGCAGG
As to B4, the binding result in the series with SP1, recombinant is recorded as “no binding”; with SP3, recombinant, “no binding”. For the same molecule, in the series with VEZF1 (BGP1) [4], the binding signal was ~5 fold lower affinity than FI and betaA sites.
